The target of the assay is human GLP-1 receptor (human, UniProt P43220). The assay is described as follows: cell-based or functional assay.

Starred links: 1 amine or outer side, 2 acyl side, 3 side chain; linkers in the order of their positions; H or OH if unused. Non-standard residues stand in square brackets, D forms with d. Groups on a side chain read outwards from the residue. No end group written: not given here. *: point of attachment. C20 diacid = O=C(O)CCCCCCCCCCCCCCCCCCC(=O)*; C18 diacid = O=C(O)CCCCCCCCCCCCCCCCC(=O)*; γGlu = O=C(O)[C@H](CCC(=O)[*:2])N[*:1]; αMeF = C[C@](N)(Cc1ccccc1)C(=O)O; AEEA = NCCOCCOCC(=O)O; Aib = CC(C)(N)C(=O)O

B1: Peptide 489 (peptide)
peptide: H[Aib]QGTFTSDVSK[αMeF]LDTK([AEEA-AEEA-γGlu-C18 diacid])RARDFVQWLL[Aib]TE-NH2
modifications: N-terminus assumed
SMILES: CC(C)C[C@H](NC(=O)[C@H](Cc1c[nH]c2ccccc12)NC(=O)[C@H](CCC(N)=O)NC(=O)[C@@H](NC(=O)[C@H](Cc1ccccc1)NC(=O)[C@H](CC(=O)O)NC(=O)[C@H](CCCNC(=N)N)NC(=O)[C@H](C)NC(=O)[C@H](CCCNC(=N)N)NC(=O)[C@H](CCCCNC(=O)COCCOCCNC(=O)COCCOCCNC(=O)CC[C@H](NC(=O)CCCCCCCCCCCCCCCCC(=O)O)C(=O)O)NC(=O)[C@@H](NC(=O)[C@H](CC(=O)O)NC(=O)[C@H](CC(C)C)NC(=O)[C@](C)(Cc1ccccc1)NC(=O)[C@H](CCCCN)NC(=O)[C@H](CO)NC(=O)[C@@H](NC(=O)[C@H](CC(=O)O)NC(=O)[C@H](CO)NC(=O)[C@@H](NC(=O)[C@H](Cc1ccccc1)NC(=O)[C@@H](NC(=O)CNC(=O)[C@H](CCC(N)=O)NC(=O)C(C)(C)NC(=O)[C@@H](N)Cc1c[nH]cn1)[C@@H](C)O)[C@@H](C)O)C(C)C)[C@@H](C)O)C(C)C)C(=O)N[C@@H](CC(C)C)C(=O)NC(C)(C)C(=O)N[C@H](C(=O)N[C@@H](CCC(=O)O)C(N)=O)[C@@H](C)O
For B1, the “cAMP production EC50” value worked out at 0.0228 nM.

B2: Peptide 480 (peptide)
peptide: H[Aib]QGTFTSDVSK[αMeF]LDTK([AEEA-AEEA-γGlu-C18 diacid])RARDFVQWLLE[Aib]K-NH2
modifications: N-terminus assumed
SMILES: CC(C)C[C@H](NC(=O)[C@H](Cc1c[nH]c2ccccc12)NC(=O)[C@H](CCC(N)=O)NC(=O)[C@@H](NC(=O)[C@H](Cc1ccccc1)NC(=O)[C@H](CC(=O)O)NC(=O)[C@H](CCCNC(=N)N)NC(=O)[C@H](C)NC(=O)[C@H](CCCNC(=N)N)NC(=O)[C@H](CCCCNC(=O)COCCOCCNC(=O)COCCOCCNC(=O)CC[C@H](NC(=O)CCCCCCCCCCCCCCCCC(=O)O)C(=O)O)NC(=O)[C@@H](NC(=O)[C@H](CC(=O)O)NC(=O)[C@H](CC(C)C)NC(=O)[C@](C)(Cc1ccccc1)NC(=O)[C@H](CCCCN)NC(=O)[C@H](CO)NC(=O)[C@@H](NC(=O)[C@H](CC(=O)O)NC(=O)[C@H](CO)NC(=O)[C@@H](NC(=O)[C@H](Cc1ccccc1)NC(=O)[C@@H](NC(=O)CNC(=O)[C@H](CCC(N)=O)NC(=O)C(C)(C)NC(=O)[C@@H](N)Cc1c[nH]cn1)[C@@H](C)O)[C@@H](C)O)C(C)C)[C@@H](C)O)C(C)C)C(=O)N[C@@H](CC(C)C)C(=O)N[C@@H](CCC(=O)O)C(=O)NC(C)(C)C(=O)N[C@@H](CCCCN)C(N)=O
With B2, the “cAMP production EC50” value worked out at 0.0126 nM.

B3: Peptide 511 (peptide)
peptide: H[Aib]QGTFTSDVSK[αMeF]LDTK([AEEA-AEEA-γGlu-C20 diacid])RARDFVRWLL[Aib]E-NH2
modifications: N-terminus assumed
SMILES: CC(C)C[C@H](NC(=O)[C@H](Cc1c[nH]c2ccccc12)NC(=O)[C@H](CCCNC(=N)N)NC(=O)[C@@H](NC(=O)[C@H](Cc1ccccc1)NC(=O)[C@H](CC(=O)O)NC(=O)[C@H](CCCNC(=N)N)NC(=O)[C@H](C)NC(=O)[C@H](CCCNC(=N)N)NC(=O)[C@H](CCCCNC(=O)COCCOCCNC(=O)COCCOCCNC(=O)CC[C@H](NC(=O)CCCCCCCCCCCCCCCCCCC(=O)O)C(=O)O)NC(=O)[C@@H](NC(=O)[C@H](CC(=O)O)NC(=O)[C@H](CC(C)C)NC(=O)[C@](C)(Cc1ccccc1)NC(=O)[C@H](CCCCN)NC(=O)[C@H](CO)NC(=O)[C@@H](NC(=O)[C@H](CC(=O)O)NC(=O)[C@H](CO)NC(=O)[C@@H](NC(=O)[C@H](Cc1ccccc1)NC(=O)[C@@H](NC(=O)CNC(=O)[C@H](CCC(N)=O)NC(=O)C(C)(C)NC(=O)[C@@H](N)Cc1c[nH]cn1)[C@@H](C)O)[C@@H](C)O)C(C)C)[C@@H](C)O)C(C)C)C(=O)N[C@@H](CC(C)C)C(=O)NC(C)(C)C(=O)N[C@@H](CCC(=O)O)C(N)=O
Consider B3, for which the “cAMP production EC50” value was found to be 0.118 nM.

B4: Peptide 463 (peptide)
peptide: H[Aib]QGTFTSDVSK[αMeF]LDSK([AEEA-AEEA-γGlu-γGlu-C18 diacid])RAQDFVQWLL[Aib]T-NH2
modifications: N-terminus assumed
SMILES: CC(C)C[C@H](NC(=O)[C@H](Cc1c[nH]c2ccccc12)NC(=O)[C@H](CCC(N)=O)NC(=O)[C@@H](NC(=O)[C@H](Cc1ccccc1)NC(=O)[C@H](CC(=O)O)NC(=O)[C@H](CCC(N)=O)NC(=O)[C@H](C)NC(=O)[C@H](CCCNC(=N)N)NC(=O)[C@H](CCCCNC(=O)COCCOCCNC(=O)COCCOCCNC(=O)CC[C@H](NC(=O)CC[C@H](NC(=O)CCCCCCCCCCCCCCCCC(=O)O)C(=O)O)C(=O)O)NC(=O)[C@H](CO)NC(=O)[C@H](CC(=O)O)NC(=O)[C@H](CC(C)C)NC(=O)[C@](C)(Cc1ccccc1)NC(=O)[C@H](CCCCN)NC(=O)[C@H](CO)NC(=O)[C@@H](NC(=O)[C@H](CC(=O)O)NC(=O)[C@H](CO)NC(=O)[C@@H](NC(=O)[C@H](Cc1ccccc1)NC(=O)[C@@H](NC(=O)CNC(=O)[C@H](CCC(N)=O)NC(=O)C(C)(C)NC(=O)[C@@H](N)Cc1c[nH]cn1)[C@@H](C)O)[C@@H](C)O)C(C)C)C(C)C)C(=O)N[C@@H](CC(C)C)C(=O)NC(C)(C)C(=O)N[C@H](C(N)=O)[C@@H](C)O
On to B4, for which the “cAMP production EC50” value amounted to 0.274 nM.

B5: Peptide 461 (peptide)
peptide: H[Aib]QGTFTSDVSK[αMeF]LDRK([AEEA-AEEA-γGlu-C18 diacid])RAQDFVRWLLAE-NH2
modifications: N-terminus assumed
SMILES: CC(C)C[C@H](NC(=O)[C@H](CC(C)C)NC(=O)[C@H](Cc1c[nH]c2ccccc12)NC(=O)[C@H](CCCNC(=N)N)NC(=O)[C@@H](NC(=O)[C@H](Cc1ccccc1)NC(=O)[C@H](CC(=O)O)NC(=O)[C@H](CCC(N)=O)NC(=O)[C@H](C)NC(=O)[C@H](CCCNC(=N)N)NC(=O)[C@H](CCCCNC(=O)COCCOCCNC(=O)COCCOCCNC(=O)CC[C@H](NC(=O)CCCCCCCCCCCCCCCCC(=O)O)C(=O)O)NC(=O)[C@H](CCCNC(=N)N)NC(=O)[C@H](CC(=O)O)NC(=O)[C@H](CC(C)C)NC(=O)[C@](C)(Cc1ccccc1)NC(=O)[C@H](CCCCN)NC(=O)[C@H](CO)NC(=O)[C@@H](NC(=O)[C@H](CC(=O)O)NC(=O)[C@H](CO)NC(=O)[C@@H](NC(=O)[C@H](Cc1ccccc1)NC(=O)[C@@H](NC(=O)CNC(=O)[C@H](CCC(N)=O)NC(=O)C(C)(C)NC(=O)[C@@H](N)Cc1c[nH]cn1)[C@@H](C)O)[C@@H](C)O)C(C)C)C(C)C)C(=O)N[C@@H](C)C(=O)N[C@@H](CCC(=O)O)C(N)=O
In the case of B5, the “cAMP production EC50” value amounted to 0.167 nM.

For the origin of these results see US12630600B2 (MEDIMMUNE LIMITED, priority 2022, dated 2026).
